These results are taken from US9664676B2, “RNA sequences that induce fluorescence of small molecule fluorophores” (Cornell University, priority 2013, dated 2017).

The test system of one data set is (CGG)60-Spinach2 foci. Kind of data set: Effects of drugs on CGG RNA foci in COS-7 cells expressing (CGG)60-Spinach2. In kind it is cell-based. As to the method: Transfection of COS-7 Cells and Live Cell Imaging: COS-7 cells (ATCC-CRL-1651) were cultured and passaged in DMEM supplemented with 50 units of penicillin and 50 μg of streptomycin per milliliter. For imaging experiments, cells were grown on cells cultured on 24-well glass-bottom dishes and transfected with 0.6 μg of pCDNA-60CGG-Spinach or pCDNA-60CGG-Spinach2 using FuGeneHD (Roche) per the manufacturer's instructions in DMEM medium lacking penicillin and streptomycin. Cells were imaged in CO2-independent medium (Invitrogen) supplemented with L-glutamine. At 30 min-1 h before imaging, medium was supplemented with 25 mM HEPES, 5 mM MgSO4, 1 μg/ml Hoechst 33342 (when appropriate) and 20 μM DFHBI or vehicle. Live fluorescence images were acquired in a temperature-controlled chamber at 35-37° C. with a CoolSnap HQ2 CCD camera through a 60× oil objective (Plan Apo 1.4 numerical aperture (NA)) mounted on a Nikon TE2000 epifluorescence microscope and analyzed with the NIS-Elements software. Spinach was imaged with a filter cube typically used for fluorescein or EGFP, with a sputter-coated excitation filter 470/40 nm, dichroic mirror 495 nm (long-pass), and emission filter 525/50 (Chroma Technology). DsRed-Max and mCherry were imaged using a filter cube typically used for Texas Red, with a sputter coated excitation filter 560/40 nm and emission filter 630/75 nm (Chroma Technology). Background intensity was subtracted from all pixel intensity measurements. Image analyses were completed with NIS-Elements AR 3.2 (Nikon). Drug treatments were carried out as specified. Tautomycin was used at a final concentration of 5 μM in all cases. 1a was used at a final concentration 20 μM in all cases. DMSO was added to a final concentration of 0.1% for vehicle treatments.

The conditions of data set [1]: taken from Song et al.; cited from earlier work.
Data set [2] in a line: In vitro fluorescence (brightness) of Spinach RNAs, mutants and flanked/fused constructs with DFHBI. In kind it is biochemical. Particulars: for Percent Brightness (at 42° C.): percent of signal remaining at 42 °C for a given mutant; for Relative Brightness (at 25° C.): relative to Spinach. An excerpt:
Preparation and Analysis of Spinach and Spinach Mutants: RNAs were created by using the appropriate single-stranded DNA templates (Integrated DNA Technologies) and PCR amplification using primers that included a 5′ T7 promoter sequence to generate double-stranded DNA templates. PCR products were then purified with PCR purification columns (Qiagen) and used as templates for in vitro T7 transcription reactions (Epicentre) as described previously (Paige et al., “RNA mimics of green fluorescent protein,” Science 333: 642-646 (2011), which is hereby incorporated by reference in its entirety). RNA was purified using ammonium acetate precipitation, and quantified using both absorbance values and the Riboquant Assay kit (BD Biosciences). Photophysical characterization of Spinach2 was carried out as previously described (Paige et al., “RNA mimics of green fluorescent protein,” Science 333: 642-646 (2011), which is hereby incorporated by reference in its entirety).
Preparation and In Vitro Analysis of Flanked Spinach and Spinach2 Constructs: Spinach and Spinach2 constructs flanked on either side by 50 base pairs were generated by PCR. For Spinach, the following primers were used:
The 50-base-pair sequences were taken from the human β-actin 3′ untranslated region. Both forward primers encode the T7 RNA polymerase promoter for in vitro transcription. 5S-Spinach and 5S-Spinach2 were amplified by PCR from pAV-5S-Spinach and pAV-5S-Spinach2, respectively, using the following primers: […]
PCR products were used as templates for in vitro transcription by Ampliscribe T7 RNA polymerase as previously described (Paige et al., “RNA mimics of green fluorescent protein,” Science 333: 642-646 (2011), which is hereby incorporated by reference in its entirety). Fluorescence measurements were recorded for 0.1 μM RNA in the presence of 10 μM DFHBI in buffer composed of 20 mM HEPES pH 7.4, 100 mM KCl and […] as described above.
Next, systematic mutagenesis was carried out to identify thermostable Spinach mutants with improved folding. Because elevated G+C content can lead to stable misfolded structures (Kiliszek et al., “Crystal Structures of CGG RNA Repeats with Implications for Fragile X-Associated Tremor Attaxia Syndrome,” Nuc. Acids Res. 39:7308-7315 (2011); Sobczak et al., “RNA Structure of Trinucleotide Repeats Associated with Human Neurological Diseases,” Nuc. Acids Res. 31:5469-5482 (2003), each of which is hereby incorporated by reference in its entirety), it was reasoned that decreasing the overall G+C content could promote proper folding. Scanning mutagenesis was carried out, mutating every […] and cytosine to adenosine or uracil, respectively. In regions where G and C residues were predicted to form a base pair, both residues were mutated to A and U, to maintain the complementarity. Each of these 35 mutants was synthesized in vitro, and the fraction folded was measured at 25° C. and 42° C. Fluorescence signals that were equal to or greater than Spinach at 25° C. indicated equal or greater percent folded. A higher percentage signal at 42° C. indicated improved thermostability relative to Spinach.

The nature of data set [3]: Thermostability measurements of Spinach RNAs with DFHBI. In kind it is physicochemical. Particulars: fluorescence of RNA-DFHBI complex in vitro, 20-60 °C; ±s.e.m. As to the method: Thermostability Measurements: Spinach or Spinach2 (1 μM) was incubated in 20 mM HEPES pH 7.4, 100 mM KCl, 1 mM MgCl2 and 10 μM DFHBI. Fluorescence values were recorded in 1° C. increments from 20° C. to 60° C., with a 5-min incubation at each temperature to allow for equilibration. Fluorescence measurements were performed using a PerkinElmer LS-55 fluorescence spectrometer using the following instrument parameters: excitation wavelength, 460 nm; emission wavelength, 501 nm; slit widths, 10 nm. Curves were fitted using the Boltzmann sigmoidal equation in GraphPad Prism 5 software. Values presented are mean and s.e.m. from three independent measurements.

Data set [4] is described as follows: Folding assay (fraction of RNA folded, DFHBI). Format: physicochemical. As to the method:
Folding Assay: The folding assay involves measurement of fluorescence under two conditions, one in which RNA is in excess relative to DFHBI, and one in which the DFHBI is in excess relative to RNA. As Spinach and DFHBI form a 1:1 stoichiometric complex, the maximum amount of complex that can be formed is determined by the limiting component. In the first condition, the fluorescence was determined by incubation of 0.1 μM DFHBI and 100-fold excess (10 μM) Spinach. This value was used to define the fluorescence of 0.1 μM Spinach-DFHBI complex. It was assumed that even if nearly all Spinach is misfolded or unfolded, there will be enough properly folded Spinach to stoichiometrically bind 0.1 μM DFHBI. This was confirmed by measuring fluorescence after doubling the RNA to 20 μM, which caused no increase in fluorescence. In the second condition, the fluorescence obtained using 10 μM DFHBI and 0.1 μM Spinach was measured. In theory, up to 0.1 μM Spinach-DFHBI can form if all the Spinach is folded. However, if a portion of Spinach is unfolded, the fluorescence will be proportionately less than the fluorescence of 0.1 μM Spinach-DFHBI. Thus, this approach can reveal the fraction of Spinach that is folded under diverse conditions.
Fluorescence was measured for each RNA under the following conditions: (i) 0.1 μM RNA and 10 μM DFHBI, and (ii) 0.1 μM DFHBI and 10 μM RNA. For each condition, the signal from DFHBI without RNA was subtracted from each signal. Fluorescence was measured in 20 mM HEPES pH 7.4, 100 mM KCl and 1 mM MgCl2 at the designated temperature. Fluorescence measurements were performed using a PerkinElmer LS-55 fluorescence spectrometer using the following instrument parameters: excitation wavelength, 460 nm; emission wavelength, 501 nm; slit widths, 10 nm. Signal from the first condition (limiting RNA) was divided by the signal from the second condition (limiting dye) to determine the fraction folded.

In the case of `CO[C@H]([C@H](O)CC(=O)[C@@H](C)[C@@H](O)CC[C@@H](C)[C@@H]1O[C@]2(CC[C@@H](C)[C@H](CC[C@H](C)C(C)=O)O2)CC[C@@H]1C)[C@H](OC(=O)C[C@@H](O)C1=C(C)C(=O)OC1=O)C(C)C` [tautomycin], in the data set on (CGG)60-Spinach2 foci (5 μM), the “time to disaggregation of existing foci” value is given as 1 h. In the data set on (CGG)60-Spinach2 foci (20 μM 1a or 5 μM tautomycin), the “effect on formation of (CGG)60-Spinach2 foci” value is listed as “prevented formation of (CGG)60-Spinach2 foci”. Besides, the nuclei containing foci with (CGG)60-Spinach2 foci (24 h treatment, 20 μM 1a or 5 μM tautomycin, ±s.e.m.) is on record as 12±4.2%.
`C=C1[C@@H](O)[C@@H]2O[C@]3(CC[C@H](/C=C/[C@@H](C)[C@@H]4CC(C)=C[C@@]5(O[C@H](C[C@@](C)(O)C(=O)O)CC[C@H]5O)O4)O3)CC[C@H]2O[C@@H]1[C@@H](O)C[C@H](C)[C@H]1O[C@@]2(CCCCO2)CC[C@H]1C` [okadaic acid]: the “disruption of existing foci” value in the data set on (CGG)60-Spinach2 foci (1a: imaging every 5 min for 2 h, okadaic acid: over 4 h) is listed as “No disruption of foci”.
As for `CC1=N/C(=C\c2cc(F)c(O)c(F)c2)C(=O)N1CC(F)(F)F` [DFHBI-1T], in data set [1], the Abs max is 423 nm, the Brightness is given as 0.12, the Em max is 495 nm and the Ex max is reported as 426 nm. Also, in data set [1], the Ext. coeff. is 35,400 M^−1cm^−1 and the Quantum yield is recorded as 0.00098.

B1: Spinach1.1: Spinach mutant with perfect complementarity in stem 1, SEQ ID NO: 30 (nucleic acid)
chain: GACGCGACCGAATGAAATGGTGAAGGACGGGTCCAGGTGTGGCTGCTTCGGCAGTGCAGCTTGTTGAGTAGAGTGTGAGCTCCGTAACTGGTCGCGTC
modifications: listed as DNA, chemistry not given here
On to B1, for which, in data set [2] (1 μM RNA, 10 μM DFHBI, 25 °C), the “brightness compared to Spinach” value is “as bright as Spinach”. For the same molecule, the “melting temperature (Tm)” value in data set [3] is 35±0.5 °C.

B2: Spinach: RNA aptamer binding DFHBI, SEQ ID NO: 1 (nucleic acid)
chain: GACGCAACUGAAUGAAAUGGUGAAGGACGGGUCCAGGUGUGGCUGCUUCGGCAGUGCAGCUUGUUGAGUAGAGUGUGAGCUCCGUAACUAGUCGCGUC
modifications: listed as RNA, chemistry not given here
B2: in data set [2], the “fluorescence when fused to the CGG repeat-containing RNA” value was “essentially nonfluorescent”. Further, in data set [2] (flanked by 50 nt of RNA on both 5′ and 3′ ends, 0.1 μM RNA), the “brightness of flanked RNA relative to the same aptamer alone” value is reported as 20%. The “Percent Brightness (at 42° C.)” value in data set [2] was 19%. Also, the “Relative Brightness (at 25° C.)” value in data set [2] (25 °C) worked out at 1.0. Also, the percentage folded was determined as 50±3.9% in data set [4] (25 °C, in the presence of the tRNA (tRNA^Lys3 scaffold)); 32±4.2% in data set [4] (25 °C, no tRNA scaffold); 24±2.4% in data set [4] (37 °C, in the presence of the tRNA (tRNA^Lys3 scaffold)); 13±2.8% in data set [4] (37 °C, no tRNA scaffold). Also, in data set [3], the “melting temperature (Tm)” value was 34±0.6 °C.

B3: Spinach1.2: Spinach mutant with perfect complementarity in stem 1 and stem loop 3, SEQ ID NO: 31 (nucleic acid)
chain: GACGCGACCGAATGAAATGGTGAAGGACGGGTCCAGCCGGCTGCTTCGGCAGCCGGCTTGTTGAGTAGAGTGTGAGCTCCGTAACTGGTCGCGTC
modifications: listed as DNA, chemistry not given here
As to B3, the “dimmer than Spinach” value in data set [2] (1 μM RNA, 10 μM DFHBI, 25 °C) is on record as 16%. Further, the “Percent Brightness (at 42° C.)” value in data set [2] worked out at 41%. The “Relative Brightness (at 25° C.)” value in data set [2] (25 °C) amounted to 0.8. Also, the percentage folded in data set [4] (25 °C, no tRNA scaffold) is 27±2.1%; in data set [4] (37 °C, no tRNA scaffold), 16±2.3%. The “melting temperature (Tm)” value in data set [3] is 38±0.3 °C.
